As a reminder, the Kd is a measure of binding affinity in units of concentration.

Common to all, as to settings: both partners purified
For assay [1], the target named is T1, H3.3/H4 (human | X. laevis, UniProt P84243 1-136; P62799 1-103).
T1 construct: histone H3.3, human, from a human cDNA library (ATCC 77430); also called H3.3(FL)/H4(FL); FL H3.3/H4; not shown: His6, N-terminal, cleaved; copies: 2 + 2
Put plainly: ITC; 0.450 mM UBN1 injected into a cell with 30 μM H3/H4, 22 °C; 20 mM HEPES pH 7.5, 750 mM NaCl, 1 mM TCEP. Background: Isothermal titration calorimetry measures the heat released or taken up as one component is titrated into another.

The target in a further assay is T2, Asf1/H3.3(FL)/H4(FL) (S. cerevisiae | human | X. laevis, UniProt P32447 1-169; P84243 1-136; P62799 1-103).
T2 construct: histone H3.3, human; also called Asf1/H3.3(FL)/H4(FL) complex; not shown: His6, N-terminal, cleaved; copies: + +
The description is as above.

For assay [2], the target named is T1, H3.3/H4. Put plainly: ITC + fluorescence polarisation; range of dissociation constants printed 'depending on the assay used' (ITC and FP competition against FITC-UBN1(127–148)); 750 mM NaCl buffer. (Polarisation of emitted light reports the rotation of a fluorescent probe.)
In assay [3] the target is T1, H3.3/H4. Put plainly: fluorescence polarisation; competition: UBN1 competitor titrated into 10 nM FITC-UBN1(127–148) with 6.5 μM H3.3/H4 or 25 μM H3.1/H4; 20 mM HEPES pH 7.5, 750 mM NaCl, 1 mM TCEP.
For assay [4], the target named is T1, H3.3/H4. Put plainly: fluorescence polarisation; direct: increasing H3/H4 titrated into 10 nM FITC-UBN1(127–148); 20 mM HEPES pH 7.5, 750 mM NaCl, 1 mM TCEP; one site total binding fit.
The target in a further assay is T3, H3.1/H4 (human | X. laevis, UniProt P68431 1-136; P62799 1-103).
T3 construct: also called H3.1(FL)/H4(FL); FL H3.1/H4; not shown: His6, N-terminal, cleaved; copies: 2 + 2
The assay is described as above.

Assay [5] concerns the target T1, H3.3/H4. Put plainly: pull-down; 2 μM GST-tagged protein as bait on glutathione agarose, 4 μM H3/H4; 20 mM HEPES pH 7.5, 750 mM NaCl, 1 mM TCEP, 4 °C; Coomassie gel (Figs 2, 3, Supplementary Figs 1, 4, 5).

No end group written: not given here. *: point of attachment. FITC = O=C1OC2(c3ccc(O)cc3Oc3cc(O)ccc32)c2ccc(NC(=S)*)cc21

B1: UBN1(122–175) (domain or fragment)
chain: not shown
Regarding B1, the binding result with H3.3/H4 [1] was “binds”.

B2: UBN1(122–148) peptide (peptide)
peptide: IQDLIDMGYGYDESDSFIDNSEAYDEL
notes: also called UBN1-HRD peptide; source: synthetic peptide (Genscript)
For B2, the Kd with Asf1/H3.3(FL)/H4(FL) was ~49 µM; with H3.3/H4 [2], 40 to 46 µM.

B3: UBN1(92–148) (domain or fragment)
chain: NDEEKERHKVEALARKFEEKYGGKKRRKDRIQDLIDMGYGYDESDSFIDNSEAYDEL
Turning to B3, the binding result with H3.3/H4 [1] is “binds”.

B4: UBN1(92–175) (domain or fragment)
chain: NDEEKERHKVEALARKFEEKYGGKKRRKDRIQDLIDMGYGYDESDSFIDNSEAYDELVPASLTTKYGGFYINSGTLQFRQASES
notes: also called UBN1 WT; source: E. coli BL21-Gold(DE3), purified (glutathione agarose, TEV cleavage, gel filtration); not shown: GST, N-terminal, cleaved
Consider B4, for which the Kd with H3.3/H4 [2] is 7 to 17 µM.

B5: UBN1(92–175) S137A (domain or fragment)
chain: NDEEKERHKVEALARKFEEKYGGKKRRKDRIQDLIDMGYGYDESDAFIDNSEAYDELVPASLTTKYGGFYINSGTLQFRQASES
notes: source: E. coli BL21-Gold(DE3), purified (TEV cleavage, gel filtration); not shown: GST, N-terminal, cleaved
For the molecule B5, the binding result with H3.3/H4 [3] was “binds”.

B6: UBN1(92–175) E134A (domain or fragment)
chain: NDEEKERHKVEALARKFEEKYGGKKRRKDRIQDLIDMGYGYDASDSFIDNSEAYDELVPASLTTKYGGFYINSGTLQFRQASES
notes: one of the 27 alanine point mutants; the text names only the residue; also called E134 alanine point mutant; source: E. coli BL21-Gold(DE3), purified (TEV cleavage, gel filtration); not shown: GST, N-terminal, cleaved
For the molecule B6, the binding result with H3.3/H4 [3] was “binds”.

B7: UBN1(92–175) S135A (domain or fragment)
chain: NDEEKERHKVEALARKFEEKYGGKKRRKDRIQDLIDMGYGYDEADSFIDNSEAYDELVPASLTTKYGGFYINSGTLQFRQASES
notes: one of the 27 alanine point mutants; the text names only the residue; also called S135 alanine point mutant; source: E. coli BL21-Gold(DE3), purified (TEV cleavage, gel filtration); not shown: GST, N-terminal, cleaved
Consider B7, for which the binding result with H3.3/H4 [3] is on record as “binds”.

B8: FITC-UBN1(127–148) (peptide)
peptide: {FITC}-DMGYGYDESDSFIDNSEAYDEL
notes: also called FITC-labelled UBN1 peptide; source: synthetic peptide (Genscript)
For the molecule B8, the Kd with H3.3/H4 [4] stood at 4.3 ± 0.2 µM; in the assay with H3.1/H4, 17.7 ± 2.3 µM.

B9: GST-UBN1(92–175) S135A (domain or fragment)
chain: NDEEKERHKVEALARKFEEKYGGKKRRKDRIQDLIDMGYGYDEADSFIDNSEAYDELVPASLTTKYGGFYINSGTLQFRQASES
notes: one of the 27 alanine point mutants; the text names only the residue; also called S135 alanine point mutant; source: E. coli BL21-Gold(DE3), purified; not shown: GST, N-terminal, kept
As to B9, the binding result with H3.3/H4 [5] is recorded as “binds”.

B10: GST-UBN1(92–175) E134A (domain or fragment)
chain: NDEEKERHKVEALARKFEEKYGGKKRRKDRIQDLIDMGYGYDASDSFIDNSEAYDELVPASLTTKYGGFYINSGTLQFRQASES
notes: one of the 27 alanine point mutants; the text names only the residue; also called E134 alanine point mutant; source: E. coli BL21-Gold(DE3), purified; not shown: GST, N-terminal, kept
Regarding B10, the binding result with H3.3/H4 [5] is recorded as “binds”.

B11: GST-UBN1(92–175) S137A (domain or fragment)
chain: NDEEKERHKVEALARKFEEKYGGKKRRKDRIQDLIDMGYGYDESDAFIDNSEAYDELVPASLTTKYGGFYINSGTLQFRQASES
notes: also called S137 alanine point mutant; source: E. coli BL21-Gold(DE3), purified; not shown: GST, N-terminal, kept
Regarding B11, in the assay with H3.3/H4 [5], the binding result was “binds”.

The values are drawn from publication PMC4510971, “Ubinuclein-1 confers histone H3.3-specific-binding by the HIRA histone chaperone complex” (Nature Communications, 2015).
